Where only a bound is given, the exact number is not on record here.

For series [1], the target named is T1, PP2A catalytic Cα-subunit (free PP2Ac) ( ("mammalian PP2Ac"), UniProt P67775 1-309).
T1 construct: PP2A Cα-subunit (PP2Ac); negligible methylation as purified; also called C-subunit; full-length PP2Ac
The experiment in a line: pull-down; core enzymes assembled on the maltose resin with the immobilized MBP-tagged truncated A-subunits. The settings on record: both partners purified.

In series [2] the target is T2, PP2A scaffold Aα-subunit (full-length A-subunit) (UniProt P30153 1-589).
T2 construct: PP2A scaffold Aα-subunit, 15 HEAT repeats; called the full-length A-subunit; the methods say that residues 9–54 were retained in all constructs, and the FRET fusion is Aα (9–589); The true N-terminal limit may be residue 9; also called scaffold subunit
The experiment in a line: assembly and purification of the core enzyme; stable PP2A core enzyme assembled from A-subunit and PP2Ac and purified as previously described [17]. Conditions: both partners purified.

The target of series [3] is T1, PP2A catalytic Cα-subunit (free PP2Ac). The experiment in a line: ITC; 200 µM LCMT-1 (pre-loaded with SAH) titrated to 20 µM PP2A; 25°C; 20 mM Tris pH 7.5, 50 mM NaCl, 50 µM MnCl2; VP-ITC. Conditions: both partners purified. A general note: In ITC the heat of successive injections is recorded.
Series [4] has as its target PP2A core enzyme with the A-subunit mutant A_R258E ( |  ("mammalian …, UniProt P30153 1-589; P67775 1-309, A_R258E). The experiment in a line: cell-based or functional assay.
The target of series [5] is PP2A core enzyme with the A-subunit mutant A_R183E ( |  ("mammalian …, UniProt P30153 1-589; P67775 1-309, A_R183E). Briefly: cell-based or functional assay.
Series [6] concerns the molecule itself. The experiment in a line: SEC; gel filtration chromatography of wild type and mutant A-subunits.

B1: A-subunit mutant missing HEAT repeats 2–10 (AΔHR2–10, mini-A) (domain or fragment, UniProt P30153 9-589, looked up)
chain: SLYPIAVLIDELRNEDVQLRLNSIKKLSTIALALGVERTRSELLPFIVELAEDAKWRVRLAIIEYMPLLAGQLGVEYFDEKLNSLCMAWLVDHVYAIREAATSNLKKLVEKFGKEWAHATIIPKVLAMSGDPNYLHRMTTLFCINVLSEVCGQDITTKHMLPTVLRMAGDPVANVRFNVAKSLQKIGPILDNSTLQSEVKPILEKLTQDQDVDVKYFAQEALTVLSLA
notes: the FRET fusion is Aα (9–589); source: E. coli DH5α, MBP-tagged, immobilised on maltose resin
As to B1, the binding result in series [1] is recorded as “binds”.

B2: A-subunit mutant missing HEAT repeats 2–8 (AΔHR2–8) (domain or fragment, UniProt P30153 9-589, looked up)
chain: SLYPIAVLIDELRNEDVQLRLNSIKKLSTIALALGVERTRSELLPFIKELVSDANQHVKSALASVIMGLSPILGKDNTIEHLLPLFLAQLKDECPEVRLNIISNLDCVNEVIGIRQLSQSLLPAIVELAEDAKWRVRLAIIEYMPLLAGQLGVEFFDEKLNSLCMAWLVDHVYAIREAATSNLKKLVEKFGKEWAHATIIPKVLAMSGDPNYLHRMTTLFCINVLSEVCGQDITTKHMLPTVLRMAGDPVANVRFNVAKSLQKIGPILDNSTLQSEVKPILEKLTQDQDVDVKYFAQEALTVLSLA
notes: as for B1
As for B2, the binding result in series [1] was “binds”.

B3: PP2Ac with internal deletion of five residues of the PP2Ac-tail (PP2AcΔ294–298) (enzyme, UniProt P67775 1-309, looked up)
chain: MDEKVFTKELDQWIEQLNECKQLSESQVKSLCEKAKEILTKESNVQEVRCPVTVCGDVHGQFHDLMELFRIGGKSPDTNYLFMGDYVDRGYYSVETVTLLVALKVRYRERITILRGNHESRQITQVYGFYDECLRKYGNANVWKYFTDLFDYLPLTALVDGQIFCLHGGLSPSIDTLDHIRALDRLQEVPHEGPMCDLLWSDPDDRGGWGISPRGAGYTFGQDISETFNHANGLTLVSRAHQLVMEGYNWCHDRNVVTIFSAPNYCYRCGNQAAIMELDDTLKYSFLQFDPAPHVTRRTPDYFL
notes: Probably made as the wild-type Cα-subunit (insect cells, His8 tag cleaved); also called shortened PP2Ac
B3: the binding result in series [2] is listed as “binds”.

B4: PP2A-specific leucine carboxyl methyltransferase 1 (LCMT-1) (enzyme, human, UniProt Q9UIC8 1-334, looked up)
chain: MATRQRESSITSCCSTSSCDADDEGVRGTCEDASLCKRFAVSIGYWHDPYIQHFVRLSKERKAPEINRGYFARVHGVSQLIKAFLRKTECHCQIVNLGAGMDTTFWRLKDEDLLPSKYFEVDFPMIVTRKLHSIKCKPPLSSPILELHSEDTLQMDGHILDSKRYAVIGADLRDLSELEEKLKKCNMNTQLPTLLIAECVLVYMTPEQSANLLKWAANSFERAMFINYEQVNMGDRFGQIMIENLRRRQCDLAGVETCKSLESQKERLLSNGWETASAVDMMELYNRLPRAEVSRIESLEFLDEMELLEQLMRHYCLCWATKGGNELGLKEITY
notes: human LCMT-1, cloned into pET15b; For ITC it was pre-loaded with SAH (0.5 mM, 10 min, 37°C)
As for B4, in series [3], the “fold reduction of binding affinity against the core enzyme” value is ~4 fold and the “stoichiometry N” value was < 1. In addition, the “Km of methylation of the PP2A core enzyme by LCMT-1 (3H-SAM), fold increase against the wild-type core enzyme” value in series [4] was 2 fold. The “Km of methylation of the PP2A core enzyme by LCMT-1 (3H-SAM), fold increase against the wild-type core enzyme” value in series [5] stood at 1.5 fold.

B5: A-subunit mutant A_D61A/E62K/E100A/E101K (natural protein, UniProt P30153 1-589, looked up)
chain: MAAADGDDSLYPIAVLIDELRNEDVQLRLNSIKKLSTIALALGVERTRSELLPFLTDTIYAKDEVLLALAEQLGTFTTLVGGPEYVHCLLPPLESLATVAKTVVRDKAVESLRAISHEHSPSDLEAHFVPLVKRLAGGDWFTSRTSACGLFSVCYPRVSSAVKAELRQYFRNLCSDDTPMVRRAAASKLGEFAKVLELDNVKSEIIPMFSNLASDEQDSVRLLAVEACVNIAQLLPQEDLEALVMPTLRQAAEDKSWRVRYMVADKFTELQKAVGPEITKTDLVPAFQNLMKDCEAEVRAAASHKVKEFCENLSADCRENVIMSQILPCIKELVSDANQHVKSALASVIMGLSPILGKDNTIEHLLPLFLAQLKDECPEVRLNIISNLDCVNEVIGIRQLSQSLLPAIVELAEDAKWRVRLAIIEYMPLLAGQLGVEFFDEKLNSLCMAWLVDHVYAIREAATSNLKKLVEKFGKEWAHATIIPKVLAMSGDPNYLHRMTTLFCINVLSEVCGQDITTKHMLPTVLRMAGDPVANVRFNVAKSLQKIGPILDNSTLQSEVKPILEKLTQDQDVDVKYFAQEALTVLSLA
notes: PP2A scaffold Aα-subunit, multiple mutant D61A/E62K/E100A/E101K; Probably made as the wild-type A-subunit
For the molecule B5, the binding result in series [6] was “binds”.

As a reminder, the stoichiometry N is a count of units in the complex or per binding partner.

(Values after PMC3900686, “Mechanisms of the Scaffold Subunit in Facilitating Protein Phosphatase 2A Methylation” (PLoS ONE, 2014).)
